Assay results published in US20180148496A1 (HUAHUI HEALTH, published 2018).

Assays:
[1] = biological target: pre-S1 domain of the L envelope protein on HBV (genotype D) virus (Hepatitis B virus genotype D); experiment: cell-based or functional assay
[2] = biological target: pre-S1 domain of the L envelope protein on HBV (genotype B) virus (Hepatitis B virus genotype B); experiment: cell-based or functional assay
[3] = biological target: pre-S1 domain of the L envelope protein on HBV (genotype C) virus (Hepatitis B virus genotype C); experiment: cell-based or functional assay
[4] = biological target: T1, NC36b: peptide comprising residues 4-38 of the pre-S1 domain of HBV L protein with a biotin modification at … (Hepatitis B virus (genotype  …, C-terminal K-Biotin)); experiment: ELISA on peptide captured by streptavidin
T1 peptide: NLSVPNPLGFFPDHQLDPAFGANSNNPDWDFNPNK

B1: A14 (antibody, V domains shown)
VH: QVQLQQSGPGLVKPSQTLSLTCAISGDSVSSNSAAWNWIRQSPSRGLEWLGRTYYRSKWYNDYAVSVKSRITINPDTSKNQFSLQLNSVTPEDTAVYYCARGTRWGMDVWGQGTLVTVSS
VL: QSVLTQPPSASGTPGQRVTISCSGSSSNIGSYYVYWYQQFPGTAPKLLIYGNNQRPSGVPDRFSGSKSGTSASLAITGLQAEDEADYYCQSYDSSLSGVIFGGGTKLTVL
HBV (genotype D) neutralization activity, against HBIG [1]: > 1000 fold | IC50 of HBV neutralization, genotype D [1]: 0.01 nM | IC50 of HBV neutralization, genotype B [2]: 0.08 nM | IC50 of HBV neutralization, genotype C [3]: 0.03 nM

B2: #8 (antibody, V domains shown)
VH: QVQLQQSGPGLVKPSQTLSLTCAISGDSVSSNSAAWNWIRQSPSRGLEWLGRTYYRSKWYNDYAVSVKSRITINPDTSKNQFSLQLNSVTPEDTAVYYCARGTRWGMDVWGQGTLVTVSS
VL: QSVVTQPPSVSAAPGQKVTISCSGSSSNIGNYYVSWYQHLPGTAPKLLIYDNAKRPSGIPDRFSGSKSGTSATLGITGLRAEDEADYYCQSYDNSLSGLVFGGGTKLTVL
HBV (genotype D) neutralization, against A14 [1]: 5 fold

B3: 2H5 (antibody, V domains shown)
VH: QVQLQQSGPGLVKPSQTLSLTCGISGDSVSSKSAAWNWIRQSPSRGLEWLGRTYYRSKWHNDYAVSVKSRITINPDTSKNQFSLQLNSVTPEDTAVYYCARGQMGALDVWGQGTTVTVSS
VL: QSVLTQPPSASGTPGQRVTISCSGSSSNIGSYYVYWYQQFPGTAPKLLIYGNNQRPSGVPDRFSGSKSGTSASLAITGLQAEDEADYYCQSYDSSLSGVIFGGGTKLTVL
IC50 in HBV infection assay, against KR127 [1]: 11 fold

B4: m1Q (antibody, V domains shown)
VH: QVQLVESGGGVVQPGRSLRLSCAASGFTFSSYAMHWVRQAPGKGLEQVAVISYDGSNKYYVDSVKGRFTISRDNSKNTLYLQMNSLRAEDTAVYYCARSTYGMDVWGQGTTVTVSS
VL: DVVMTQSPLSLPVTLGQSASISCRSSQSLVHSDGNTYLNWFQQRPGQSPRRLIYKVSNRDSGVPDRFSGSGSDTDFTLEISRVEAEDVGIYYCMQGTHWWTFGQGTKLDIK
notes: also called m10Q (label of the VL entry)
binding result [4]: binds

B5: m36 (antibody, V domains shown)
VH: QMQLVQSGGGLVQPGRSLRLSCAASGFTFDDYAMHWVRQAPGKGLEWVSGISWNSGSIGYADSVKGRFTISRDNAKNSLYLQMNSLRAEDTALYYCAKTSYGGAFDIWGQGTMVTVSS
VL: QPVLTQSPSASGTPGQRVTISCSGNTSNIGSYYAYWYQQLPGTAPKLLIYDNNQRPSGIPARFSGSKSGTSASLAISGLQSEDEADYYCATWDDSLNGPVFGGGTKVTVL
binding result [4]: binds
